From US6342220 (Genentech, dated 2002)

Target: T1, mpl-Ig (human, UniProt P40238 26-491, limits assumed)
T1 construct: From conditioned media of mpl-Ig-transfected 293 cells; also called mpl-IgG; not shown: human IgG Fc (the fusion is captured with rabbit anti-human IgG Fc)
T1 sequence (looked up): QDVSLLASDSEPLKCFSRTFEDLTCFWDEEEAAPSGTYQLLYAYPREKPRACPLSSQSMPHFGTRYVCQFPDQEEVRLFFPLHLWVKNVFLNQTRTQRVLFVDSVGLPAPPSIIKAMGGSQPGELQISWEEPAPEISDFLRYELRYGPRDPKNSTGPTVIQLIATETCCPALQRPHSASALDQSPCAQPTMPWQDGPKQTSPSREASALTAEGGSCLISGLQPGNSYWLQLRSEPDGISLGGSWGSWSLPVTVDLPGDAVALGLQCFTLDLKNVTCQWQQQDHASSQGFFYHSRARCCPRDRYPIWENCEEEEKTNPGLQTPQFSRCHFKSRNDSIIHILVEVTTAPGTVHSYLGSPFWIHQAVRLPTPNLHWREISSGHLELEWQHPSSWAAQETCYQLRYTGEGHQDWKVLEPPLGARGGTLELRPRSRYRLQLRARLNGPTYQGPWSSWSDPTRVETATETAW
Assay: competition ELISA, biotinylated TPO on captured mpl-Ig

- IC50: 0.64 nM
B1: 12E10 Fab′2 (other)
VH: QVQLQQSGPGLVKPSETLSLTCTVSGDSISSYYWSWIRQPPGKGLEWIGYIYYSGSTNYNPSLKSRVTISVDTSKSQFSLKLSSVTAADTAVYYCARGRYFDVWGRGTMVTVSS
VL: SYVLTQPPSVSGSPGQSITISCTGTSSDVGGYNYVSWYQQHPGKAPKLMIYEGSKRPSGVSNRFSGSKSGNTASLTISGLQAEDEADYYCSSYTTRSTRVFGGGTKLTVL
notes: F(ab′)2 with leucine zipper; A lambda version of the Fab′2 vector is not described; copies: 2 + 2
